Assay results from patent US20240368233A1 (University of Washington, published 2024).

What was measured:
[1] = target: T1, 101B82, split luciferase reporter construct; experiment: split luciferase equilibrium binding in lysate
T1 construct: not shown: N-terminal Strep-tag and sfGFP; GS-linker and smBiT or lgBiT
T1 chain: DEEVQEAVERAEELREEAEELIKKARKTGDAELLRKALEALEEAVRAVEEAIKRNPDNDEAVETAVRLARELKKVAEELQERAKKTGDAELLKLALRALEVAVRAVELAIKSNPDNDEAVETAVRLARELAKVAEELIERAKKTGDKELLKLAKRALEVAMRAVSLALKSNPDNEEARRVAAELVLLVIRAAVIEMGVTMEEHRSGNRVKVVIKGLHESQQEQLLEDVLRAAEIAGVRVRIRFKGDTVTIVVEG

[2] = target: T2, LHD206 chainB, split luciferase reporter construct; experiment: split luciferase association kinetics, 1 nM vs. 10 nM, in lysate
T2 construct: not shown: N-terminal Strep-tag and sfGFP; GS-linker and smBiT or lgBiT
T2 chain: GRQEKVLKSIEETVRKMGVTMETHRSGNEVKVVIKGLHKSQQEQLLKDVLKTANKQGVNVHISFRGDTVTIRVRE
Experimental: (§1) Assays were performed in 20 mM sodium phosphate, 100 mM NaCl, pH 7.4, 0.05% v/v Tween 20. Reactions were assembled in 96 well plates (Corning, cat #3686) in the presence of Nano-Glo™ substrate (Promega, cat. #N1130) diluted 100× or 500× for kinetics and endpoint measurements respectively (see supplement for detailed information). Luminescence was recorded on a Synergy Neo2 plate reader (BioTek). Kinetic assays were performed under pseudo first-order conditions, with the final concentration of one protein at 1 nM and the other at 10 nM. Dead times between substrate addition and data acquisition were typically 15-30 s. For long kinetic measurements (FIG. 11A), mastermixes of the protein complexes were made and aliquots were sampled at regular intervals. Data were fitted to a single exponential decay function: […]

[3] = target: T2, LHD206 chainB, split luciferase …; experiment: split luciferase equilibrium binding in lysate
LHD202 chainB [4] = target: T3, LHD202 chainB; experiment: BLI, steady state fit
T3 construct: also called LHD202B
T3 chain: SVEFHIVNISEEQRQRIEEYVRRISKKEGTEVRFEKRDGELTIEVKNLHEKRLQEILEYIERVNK
Experimental: (§2) Biolayer interferometry experiments were performed on an OctetRED96 BLI system (ForteBio, Menlo Park, CA). Streptavidin coated biosensors were first equilibrated for at least 10 minutes in Octet buffer (10 mM HEPES pH 7.4, 150 mM NaCl, 3 mM EDTA, 0.05% Surfactant P20) supplemented with 1 mg/ml Bovine Serum Albumin (SigmaAldrich). Enzymatically biotinylated designs were immobilized onto the biosensors by dipping the biosensors into a solution with 10-50 nM protein for 30-120 s. This was followed by dipping in fresh octet buffer to establish a baseline for 120 s. Titration experiments were performed at 25° C. while rotating at 1,000 r.p.m. Association of designs was allowed by dipping biosensors in solutions containing designed protein diluted in octet buffer until equilibrium was approached followed by dissociation by dipping the biosensors into fresh buffer solution in order to monitor the dissociation kinetics. Steady-state and global kinetic fits were performed using the manufacturer's software (Data Analysis 9.1) assuming a 1:1 binding model.

LHD202 chainB [5] = target: T3, LHD202 chainB; experiment: BLI, global kinetic fit, 1:1 model
Experimental: as §2

[6] = target: T4, LHD202 chainB, split luciferase reporter construct; experiment: split luciferase association kinetics, 1 nM vs. 10 nM, in lysate
T4 construct: not shown: N-terminal Strep-tag and sfGFP; GS-linker and smBiT or lgBiT
T4 chain: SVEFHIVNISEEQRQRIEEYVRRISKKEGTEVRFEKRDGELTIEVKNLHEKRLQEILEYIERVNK
Experimental: as §1

[7] = target: T5, 101B4, split luciferase reporter construct; experiment: as above
T5 construct: not shown: N-terminal Strep-tag and sfGFP; GS-linker and smBiT or lgBiT
T5 chain: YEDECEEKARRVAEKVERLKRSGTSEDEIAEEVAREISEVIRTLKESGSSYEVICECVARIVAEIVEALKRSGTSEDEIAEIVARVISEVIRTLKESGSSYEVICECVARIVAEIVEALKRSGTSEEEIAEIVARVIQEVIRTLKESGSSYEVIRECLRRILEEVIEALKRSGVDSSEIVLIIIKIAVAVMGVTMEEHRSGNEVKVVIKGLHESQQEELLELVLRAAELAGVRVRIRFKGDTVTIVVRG
Experimental: as §1

[8] = target: T5, 101B4, split luciferase reporter …; experiment: split luciferase equilibrium binding in lysate
317B [9] = target: T6, 317B; experiment: BLI, steady state fit
T6 construct: also called LHD317 B; LHD317B
T6 chain: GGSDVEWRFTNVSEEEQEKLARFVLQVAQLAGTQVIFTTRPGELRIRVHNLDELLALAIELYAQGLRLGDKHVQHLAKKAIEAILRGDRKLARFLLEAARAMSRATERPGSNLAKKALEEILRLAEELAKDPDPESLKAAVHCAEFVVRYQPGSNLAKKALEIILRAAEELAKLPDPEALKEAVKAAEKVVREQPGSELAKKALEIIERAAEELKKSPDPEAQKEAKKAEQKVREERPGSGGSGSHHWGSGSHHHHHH
Experimental: as §2

317B [10] = target: T6, 317B; experiment: BLI, global kinetic fit, 1:1 model
Experimental: as §2

[11] = target: the molecule itself; experiment: SEC titration of the protomer alone at several injection concentrations (Superdex 75, normalised A230); self-association
[12] = target: T7, LHD29 chainB, split luciferase reporter construct; experiment: split luciferase; affinity of the interface as measured in isolation, used to simulate the ternary complex ABC
T7 construct: not shown: N-terminal Strep-tag and sfGFP; GS-linker and smBiT or lgBiT
T7 chain: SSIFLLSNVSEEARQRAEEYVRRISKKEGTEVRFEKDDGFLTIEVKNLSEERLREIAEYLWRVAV

[13] = target: T7, LHD29 chainB, split luciferase reporter …; experiment: split luciferase association kinetics, 1 nM vs. 10 nM, in lysate
Experimental: as §1

[14] = target: T7, LHD29 chainB, split luciferase reporter …; experiment: split luciferase equilibrium binding in lysate
[15] = target: T8, LHD274 chainB, split luciferase reporter construct; experiment: split luciferase association kinetics, 1 nM vs. 10 nM, in lysate
T8 construct: not shown: N-terminal Strep-tag and sfGFP; GS-linker and smBiT or lgBiT
T8 chain: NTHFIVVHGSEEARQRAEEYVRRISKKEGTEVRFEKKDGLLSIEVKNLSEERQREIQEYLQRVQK
Experimental: as §1

[16] = target: T9, LHD101 chainB, split luciferase reporter construct; experiment: split luciferase; affinity of the interface as measured in isolation, used to simulate the ternary complex ABC
T9 construct: not shown: N-terminal Strep-tag and sfGFP; GS-linker and smBiT or lgBiT
T9 chain: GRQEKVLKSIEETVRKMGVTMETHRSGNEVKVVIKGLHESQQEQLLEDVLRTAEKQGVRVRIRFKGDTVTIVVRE

[17] = target: T9, LHD101 chainB, split luciferase …; experiment: split luciferase association kinetics, 1 nM vs. 10 nM, in lysate
Experimental: as §1

[18] = target: T9, LHD101 chainB, split luciferase …; experiment: split luciferase equilibrium titration in E. coli lysate, constant partner at 1 nM; first-named construct read as the titrated one; no unit beside the number, M from the axis '[Titrated] / M'
[19] = target: T9, LHD101 chainB, split luciferase …; experiment: split luciferase equilibrium binding in lysate
[20] = target: the molecule itself; experiment: SEC titration (self-association)
LHD101 chainB [21] = target: T10, LHD101 chainB; experiment: BLI, steady state fit
T10 construct: also called LHD101B
T10 chain: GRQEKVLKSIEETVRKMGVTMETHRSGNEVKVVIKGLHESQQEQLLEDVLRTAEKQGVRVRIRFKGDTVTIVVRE
Experimental: as §2

LHD101 chainB [22] = target: T10, LHD101 chainB; experiment: BLI, global kinetic fit, 1:1 model
Experimental: as §2

LHD101 chainB [23] = target: T10, LHD101 chainB; experiment: BLI, dissociation rate constant (kdis)
Experimental: as §2

LHD101 chainB [24] = target: T10, LHD101 chainB; experiment: BLI
Description: FIG. 8A-E. Characterization LHD binding in vitro. A: Designed models heterodimers (top row). Middle row, SEC binding experiments performed on a Superdex™ 75 column. Bottom row, biolayer interferometry kinetic binding traces. […] C: Kinetic binding traces from BLI. Equilibrium responses were used to fit equilibrium binding curves D: Equilibrium binding curves of LHDs from biolayer interferometry binding assays with data from C. […] Biotinylated unfused protomers were immobilized on streptavidin coated biosensors.
Biolayer interferometry experiments were performed on an OctetRED96 BLI system (ForteBio, Menlo Park, CA). Streptavidin coated biosensors were first equilibrated for at least 10 minutes in Octet buffer (10 mM HEPES pH 7.4, 150 mM NaCl, 3 mM EDTA, 0.05% Surfactant P20) supplemented with 1 mg/ml Bovine Serum Albumin (SigmaAldrich). Enzymatically biotinylated designs were immobilized onto the biosensors by dipping the biosensors into a solution with 10-50 nM protein for 30-120 s. This was followed by dipping in fresh octet buffer to establish a baseline for 120 s. Titration experiments were performed at 25° C. while rotating at 1,000 r.p.m. […]

B1: 101A21, split luciferase reporter construct (designed binder)
chain: SEKEKVEELAQRIREQLPDTELAREAQELADEARKSDDSEALKVVYLALRIVQQLPDTELAREALELAKEAVKSTDSEKLKVVYLALRVVQQLPDTEEARKALEIAKEAVKADAQILLAIARAVLKMGVEMEVHPSGNEVKVVIKGLHIKQQRQLYRDVREAAKKAGVEVEIEVEGDTVTIVVRE
notes: also called LHD101-A21-B82 (A21 half); not shown: N-terminal Strep-tag and sfGFP; GS-linker and smBiT or lgBiT
[1]
  Kd: 11 nM

B2: LHD206 chainA, split luciferase reporter construct (designed binder)
chain: TDELLERLRQLFEELHERGTEIVVEVHINGRKTEIEVQGIDKRLLKIILEVIREEIEREGSSEVEVNVHSGGQTWTFNEK
notes: not shown: N-terminal Strep-tag and sfGFP; GS-linker and smBiT or lgBiT
[2]
  kobs: 0.01 s⁻¹
[3]
  Kd: 11 nM

B3: LHD202 chainA (designed binder)
chain: GRQEKVLKSIEETVRKMGVTMETHRSGNKVKVVIKGLHESQQEQLRKDVHETLRKQGVVAVTQKHGDTVTIYVTE
notes: also called LHD202A
LHD202 chainB [4]
  Kd: 2400 nM
LHD202 chainB [5]
  Kd: 4800 nM
  koff: 0.29 s⁻¹
  kon: 60000 M⁻¹ s⁻¹

B4: LHD202 chainA, split luciferase reporter construct (designed binder)
chain: GRQEKVLKSIEETVRKMGVTMETHRSGNKVKVVIKGLHESQQEQLRKDVHETLRKQGVVAVTQKHGDTVTIYVTE
notes: as for B2
[6]
  kobs: 0.018 s⁻¹

B5: 101A53, split luciferase reporter construct (designed binder)
chain: NDEKEKLKELLKRAEELAKSPDPEDLKEAVRLAEEVVRERPGSNLAKKALEIILRAAEELAKLPDPEALKEAVKAAEKVVREQPGSNLAKKALEIILRAAAALANLPDPESRKEADKAADKVRREQPGSELAVVAAIISAVARMGVKMELHPSGNEVKVVIKGLHIKQQRQLYRDVREAAKKAGVEVEIEVEGDTVTIVVRG
notes: also called LHD101-A53-B4 (A53 half); not shown: N-terminal Strep-tag and sfGFP; GS-linker and smBiT or lgBiT
[7]
  kobs: 0.026 s⁻¹
[8]
  Kd: 4 nM

B6: LHD317 chainA (designed binder)
chain: GRQEKVLKSIEETVRKMGVRMLTHRGGNAVIVVIEGLHPSQAEQLLRDVHRTAKKQGVTVHLVFTGDIVVIMVVVGASEEEQEEMHRLVREIAEALHEAKRKGANEEQLEQLLRELLERAEREG
notes: also called LHD317A
317B [9]
  Kd: 56 nM
317B [10]
  Kd: 34.7 nM
  koff: 0.0051 s⁻¹
  kon: 150000 M⁻¹ s⁻¹
[11]
  binding result: no binding (tested: 57.4 uM)

B7: LHD29 chainA, split luciferase reporter construct (designed binder)
chain: TWQWVLINISEEARQRIEEYVRRISKKEGTEVHFEKDDGVLHIRVKNLHEKRAREIHEYAKRVIL
notes: as for B2
[12]
  Kd: 50 nM
[13]
  kobs: 0.0003 s⁻¹
[14]
  Kd: 60 nM

B8: LHD274 chainA, split luciferase reporter construct (designed binder)
chain: TTNFHLINGSEEARQRIEEYVRRISKKEGTEVHFEKSDGTLEIRVKNLHEKREREIKEYIERVLL
notes: as for B2
[15]
  kobs: 0.0014 s⁻¹

B9: LHD101 chainA, split luciferase reporter construct (designed binder)
chain: GRQEKVLKSIEETVRKMGVTMETHRSGNEVKVVIKGLHIKQQRQLYRDVRETSKKQGVETEIEVEGDTVTIVVRE
notes: as for B2
[16]
  Kd: 5 nM
[17]
  kobs: 0.04 s⁻¹
[18]
  Kd: 37 nM
[19]
  Kd: 20 nM

B10: LHD101 chainA (designed binder)
chain: GRQEKVLKSIEETVRKMGVTMETHRSGNEVKVVIKGLHIKQQRQLYRDVRETSKKQGVETEIEVEGDTVTIVVRE
notes: also called LHD101A
[20]
  binding result: no binding (tested: above 100 µM)
LHD101 chainB [21]
  Kd: 9.5 nM
LHD101 chainB [22]
  Kd: 1.9 nM
  koff: 0.0043 s⁻¹
  kon: 2.2e+06 M⁻¹ s⁻¹
LHD101 chainB [23]
  koff: 0.0214 s⁻¹
LHD101 chainB [24]
  kon: 1e+06 M⁻¹ s⁻¹
